Results: US9566335 (GOVERNING COUNCIL OF THE UNIVERSITY OF TORONTO, dated 2017)
No end group written: not given here. *: point of attachment. Biotin = O=C1N[C@H]2[C@H](CS[C@H]2CCCCC(=O)*)N1

B1: Phage displayed wild-type E. coli ClpS (truncated wildtype ClpS polypeptide, FLAG-tagged, fused to phage coat protein p3) (other)
chain: KPPSMYKVILVNDDYTPMEFVIDVLQKFFSYDVERATQLMLAVHYQGKAICGVFTAEVAETKVAMVNKYARENEHPLLCTLEKA
notes: also called ClpS Wt; ClpS WT; not shown: N-terminal FLAG tag
B2: ClpS Variant 1 (Trp-binding ClpS variant), phage displayed (designed binder)
chain: KPPSMYKVILVNDDYTPAEFCIDVLQKFFSYDVERATQLCLAAHYQGKAICGVFTAEVAETKVAMVNKYARENEHAALCTLEKA
notes: tested as phage; also called ClpS variant W1; W1; not shown: N-terminal FLAG tag of the phage display construct; C-terminal phage coat protein p3 of the phage display construct
B3: biotinylated peptide X-SDGMFTAGSLIGK(biotin), X = L (peptide)
peptide: LSDGMFTAGSLIGK(Biotin)
notes: also called Leu peptide

molecular target: T1, streptavidin (UniProt P22629 37-163); experiment: phage ELISA, FIG. 6B
T1 construct: also called SA
T1 sequence (P22629 37-163 limits assumed): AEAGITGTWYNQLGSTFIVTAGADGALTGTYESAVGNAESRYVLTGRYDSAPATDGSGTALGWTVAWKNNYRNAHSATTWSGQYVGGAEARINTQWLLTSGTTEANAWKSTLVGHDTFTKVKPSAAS

| Binder | binding result |
| --- | --- |
| B1 | no binding |

molecular target: T2, bovine serum albumin (bovine, UniProt P02769 25-607); experiment: phage ELISA, FIG. 6B
T2 construct: also called BSA
T2 sequence (P02769 25-607 limits assumed): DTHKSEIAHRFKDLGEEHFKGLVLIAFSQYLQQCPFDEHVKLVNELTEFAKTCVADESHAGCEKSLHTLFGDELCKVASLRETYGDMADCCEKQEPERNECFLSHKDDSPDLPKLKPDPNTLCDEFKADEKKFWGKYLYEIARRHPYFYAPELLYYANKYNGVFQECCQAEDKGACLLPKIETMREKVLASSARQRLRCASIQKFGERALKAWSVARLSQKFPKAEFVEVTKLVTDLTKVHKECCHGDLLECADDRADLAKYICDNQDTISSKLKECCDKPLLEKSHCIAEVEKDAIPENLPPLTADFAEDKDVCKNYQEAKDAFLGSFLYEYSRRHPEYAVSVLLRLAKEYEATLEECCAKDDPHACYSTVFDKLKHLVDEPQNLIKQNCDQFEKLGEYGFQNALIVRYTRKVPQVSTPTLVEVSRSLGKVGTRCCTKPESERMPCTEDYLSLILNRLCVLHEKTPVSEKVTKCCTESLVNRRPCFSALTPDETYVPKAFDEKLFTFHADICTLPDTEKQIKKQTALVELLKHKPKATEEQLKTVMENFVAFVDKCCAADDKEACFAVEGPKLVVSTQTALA

| Binder | binding result |
| --- | --- |
| B1 | no binding |

Molecular target: B2
Experiment: competitive phage ELISA: W1 phage equilibrated with free peptide, then on immobilised Wpep(biotin)

| Binder | IC50 [nM] | binding remaining at 10 uM competitor (relative to no competitor) [%] |
| --- | --- | --- |
| WSDGMFTAGSLI (also called Wpep) [non-biotinylated peptide XSDGMFTAGSLI, X = W] | ~1000 | 11 |

Molecular target: B2
Experiment: competitive phage ELISA against immobilised Wpep

| Binder | binding result |
| --- | --- |
| ASDGMFTAGSLI [non-biotinylated peptide XSDGMFTAGSLI, X = A] | no binding (tested: 10 uM) |
| CSDGMFTAGSLI [non-biotinylated peptide XSDGMFTAGSLI, X = C] | no binding (tested: 10 uM) |
| DSDGMFTAGSLI [non-biotinylated peptide XSDGMFTAGSLI, X = D] | no binding (tested: 10 uM) |
| ESDGMFTAGSLI [non-biotinylated peptide XSDGMFTAGSLI, X = E] | no binding (tested: 10 uM) |
| HSDGMFTAGSLI [non-biotinylated peptide XSDGMFTAGSLI, X = H] | no binding (tested: 10 uM) |
| KSDGMFTAGSLI [non-biotinylated peptide XSDGMFTAGSLI, X = K] | no binding (tested: 10 uM) |
| MSDGMFTAGSLI [non-biotinylated peptide XSDGMFTAGSLI, X = M] | no binding (tested: 10 uM) |
| NSDGMFTAGSLI [non-biotinylated peptide XSDGMFTAGSLI, X = N] | no binding (tested: 10 uM) |
| PSDGMFTAGSLI [non-biotinylated peptide XSDGMFTAGSLI, X = P] | no binding (tested: 10 uM) |
| QSDGMFTAGSLI [non-biotinylated peptide XSDGMFTAGSLI, X = Q] | no binding (tested: 10 uM) |
| RSDGMFTAGSLI [non-biotinylated peptide XSDGMFTAGSLI, X = R] | no binding (tested: 10 uM) |
| SSDGMFTAGSLI [non-biotinylated peptide XSDGMFTAGSLI, X = S] | no binding (tested: 10 uM) |
| TSDGMFTAGSLI [non-biotinylated peptide XSDGMFTAGSLI, X = T] | no binding (tested: 10 uM) |
| VSDGMFTAGSLI [non-biotinylated peptide XSDGMFTAGSLI, X = V] | no binding (tested: 10 uM) |

Molecular target: B2
Experiment: competitive phage ELISA, 10 uM free peptide against immobilised Wpep

| Binder | binding result |
| --- | --- |
| FSDGMFTAGSLI [non-biotinylated peptide XSDGMFTAGSLI, X = F] | binds |
| GSDGMFTAGSLI [non-biotinylated peptide XSDGMFTAGSLI, X = G] | binds |
| ISDGMFTAGSLI [non-biotinylated peptide XSDGMFTAGSLI, X = I] | binds |
| LSDGMFTAGSLI [non-biotinylated peptide XSDGMFTAGSLI, X = L] | binds |
| YSDGMFTAGSLI [non-biotinylated peptide XSDGMFTAGSLI, X = Y] | binds |

Molecular target: B3
Experiment: phage ELISA

| Binder | binding result |
| --- | --- |
| B2 | no binding |

molecular target: B1; experiment: phage ELISA

| Binder | binding result |
| --- | --- |
| B3 | binds |
| WSDGMFTAGSLIGK(Biotin) (also called Wpep; Trp peptide) [biotinylated peptide X-SDGMFTAGSLIGK(biotin), X = W] | binds |
